Consider 1 molecule from patent US20050142566A1 (CHILDREN S MEDICAL CENTER, published 2005).

The assay deals with T1, CatSper1 (UniProt Q91ZR5 1-686).
T1 sequence (looked up): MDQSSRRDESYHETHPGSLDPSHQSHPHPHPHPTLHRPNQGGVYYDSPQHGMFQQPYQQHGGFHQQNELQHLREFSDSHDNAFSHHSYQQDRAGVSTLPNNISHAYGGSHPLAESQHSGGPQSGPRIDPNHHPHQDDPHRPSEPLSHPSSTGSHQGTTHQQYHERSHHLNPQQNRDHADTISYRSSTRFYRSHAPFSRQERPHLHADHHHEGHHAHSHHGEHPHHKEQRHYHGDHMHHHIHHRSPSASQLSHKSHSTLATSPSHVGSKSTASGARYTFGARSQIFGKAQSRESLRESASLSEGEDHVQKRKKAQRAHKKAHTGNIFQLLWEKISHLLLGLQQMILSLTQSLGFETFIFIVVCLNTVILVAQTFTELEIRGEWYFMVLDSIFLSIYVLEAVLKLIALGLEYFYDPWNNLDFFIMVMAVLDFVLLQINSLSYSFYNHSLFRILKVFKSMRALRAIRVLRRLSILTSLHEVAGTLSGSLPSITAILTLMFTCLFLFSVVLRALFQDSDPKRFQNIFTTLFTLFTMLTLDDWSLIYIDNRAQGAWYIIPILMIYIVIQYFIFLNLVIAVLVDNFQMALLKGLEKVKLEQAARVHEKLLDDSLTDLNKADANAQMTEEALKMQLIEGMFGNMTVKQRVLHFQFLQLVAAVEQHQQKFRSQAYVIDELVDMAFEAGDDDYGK
As to the kind of experiment: co-immunoprecipitation from testis detergent extracts, immunoblot with CatSper1 antibody. As to the method:
For immunoprecipitation, samples were extracted with TBS (20 mM Tris-HCl, 150 mM NaCl, pH 7.4) containing either 1% TX-100 or 1% Zwittergent 3-14 for at least 4 hours at 4° C. The extract was centrifuged at 100,000 ×g for 30 min, and the resultant supernatant solution was incubated for 2 hours with preimmune IgG covalently bound to Protein A agarose (Seize X™, Pierce Chemical Co., Rockford, Ill.). The nonbound fraction was recovered and incubated with peptide reactive antibody (±1.5 μM peptide preincubation)/Protein A agarose overnight with rocking at 4° C. The resulting immune complexes were washed 5 times. SDS-polyacrylamide electrophoresis was according to Laemmli (1970), Nature 227:680-5. Electrophoretically separated samples were transferred to nitrocellulose membranes according to Towbin et al. (1979), Proc. Natl. Acad. Sci. USA 76:4350-4, at 50V for 2 hours, 4° C. Immnunoblots were probed in TBST/2:5% nonfat milk with CatSper2 antibody (1:5000) or CatSper1 (1:2000) antibody. After incubation with, the primary antibody, the blots were rinsed once with TBST/2.5% nonfat milk and washed with TBST (4 changes over 30 min). Blots were then incubated with secondary goat anti-rabbit IgG-HRP conjugate for 1 hour, washed with TBST (3 changes over 30 min), rinsed with TBS (3 times), and the signal detected with chemiluminescence (Pierce Chemical Co., Rockford, Ill.). […]
Background: In western blotting, separated proteins are transferred to a membrane and probed.

B1: murine CatSper2 protein (SEQ ID NO: 6) (other)
chain: MAQEQGHFQLLRADAIRSKLIDTFSLIEHLQGLSQAVPRHTLREILDPAYQQKLMSGDQEQLVRFSIKPRRMGHITHSRRLLSRLRVRCSRMPPLSLWAGWVLDSSVFSKFIISLIFLNTFVLMVEIELMESTNTALWPVKLALEVADWFILLSFIVEILLMWLASFSLFWKDAWNVFDFFVTLLSLLPELVVLLGVPAHSVWLQLLRVCRVLRSLKLFARFRQIKVILLALVRALKSMTFLLMLLLIFFYIFAVTGVYFFREYSRSTIEGLEYNMFFSDLLNSLVTVFILFTLDHWYAVLQNIWKVPESSRVFSSIYVILWLLLGSIIFRNIIIAMMVTNFQNIRSELSEEMSHLEVQYKADMFKQQIIQRRQHSESLRGTSLGKVSEDIIETSDASDDDDDDDDDDDDDDDDDDDKSDATESDGEESDSENSESENSESEKIDPEKDYAKKSYPEKSHPEKSYPEKSHPEKSYPEKSHPEKSYDEQAEAEKVKEESKEKAYPVSHSISSHGSIAADTAFLENLDWETLVHENLPGLMDMDQDDRIVWPRDSLFRYFELLEKLQYNLEERKKLQEFAVQALMSFEDK
notes: also called mouse CatSper2; 68,000 Mr protein
Take B1: the binding result was “no binding”.
